The target in this experiment is M2pd (modified M2 containing amino acids from Ala-8p to Ala326) (human) (UniProt P56817). The experiment is described as follows: cell-based or functional assay.
M2pd (modified M2 containing amino acids from Ala-8p to Ala326) (human), sequence (P56817 22-501 limits assumed): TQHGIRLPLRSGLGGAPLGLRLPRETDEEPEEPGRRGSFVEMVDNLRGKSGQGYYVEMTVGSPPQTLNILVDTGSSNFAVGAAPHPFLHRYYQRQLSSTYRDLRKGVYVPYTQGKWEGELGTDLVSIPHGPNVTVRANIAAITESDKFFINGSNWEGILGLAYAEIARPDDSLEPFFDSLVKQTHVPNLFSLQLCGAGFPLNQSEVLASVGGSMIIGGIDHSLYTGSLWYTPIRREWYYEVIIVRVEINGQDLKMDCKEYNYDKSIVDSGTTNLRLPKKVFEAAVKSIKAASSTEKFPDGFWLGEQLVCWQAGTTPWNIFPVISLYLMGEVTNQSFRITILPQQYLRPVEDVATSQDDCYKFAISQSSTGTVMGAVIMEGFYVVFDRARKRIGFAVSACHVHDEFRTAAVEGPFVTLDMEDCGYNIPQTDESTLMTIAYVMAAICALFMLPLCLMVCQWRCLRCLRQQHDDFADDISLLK

Consider Pepstatin A (peptide), for which the IC50 of inhibition of enzyme activity was 300 µM.

The values are drawn from patent US20040220079A1.
